Test results as given in patent US20240116985A1, “STAPLED PEPTIDES AND METHODS THEREOF” (priority 2020, published 2024).

Assays:
[1] = target: full-length beta-Catenin (Uniprot ID P35222) (Homo sapiens (Human)) (UniProt P35222); experiment: fluorescence polarization competition; full-length beta-catenin, 5FAM-TCF4(10-53) probe displaced
Target sequence in this assay (P35222 whole entry): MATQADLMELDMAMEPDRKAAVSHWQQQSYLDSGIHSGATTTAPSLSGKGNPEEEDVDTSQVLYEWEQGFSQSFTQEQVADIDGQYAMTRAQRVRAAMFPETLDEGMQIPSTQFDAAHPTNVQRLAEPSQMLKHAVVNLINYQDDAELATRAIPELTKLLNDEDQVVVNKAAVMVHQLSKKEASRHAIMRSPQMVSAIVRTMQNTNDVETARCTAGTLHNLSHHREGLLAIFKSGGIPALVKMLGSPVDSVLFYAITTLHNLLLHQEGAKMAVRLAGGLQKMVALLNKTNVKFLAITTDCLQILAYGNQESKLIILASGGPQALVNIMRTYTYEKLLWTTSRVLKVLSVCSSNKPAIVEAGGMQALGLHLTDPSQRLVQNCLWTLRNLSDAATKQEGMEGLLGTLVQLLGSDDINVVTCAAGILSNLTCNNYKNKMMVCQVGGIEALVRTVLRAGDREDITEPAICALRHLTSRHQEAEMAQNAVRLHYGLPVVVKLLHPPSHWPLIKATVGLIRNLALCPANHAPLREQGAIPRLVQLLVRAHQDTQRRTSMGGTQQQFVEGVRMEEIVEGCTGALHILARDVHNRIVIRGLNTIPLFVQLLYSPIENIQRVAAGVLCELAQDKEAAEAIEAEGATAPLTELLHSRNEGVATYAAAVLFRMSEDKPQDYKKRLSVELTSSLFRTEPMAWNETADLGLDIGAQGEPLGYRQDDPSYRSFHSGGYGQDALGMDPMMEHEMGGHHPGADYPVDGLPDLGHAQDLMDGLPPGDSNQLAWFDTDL

[2] = target: full-length beta-Catenin (Uniprot ID P35222) (Homo sapiens (Human)) (UniProt P35222); experiment: fluorescence polarization competition; full-length beta-catenin, 5FAM-TCF4(10-53) probe as competitor
Target sequence in this assay (P35222 2-781 limits assumed): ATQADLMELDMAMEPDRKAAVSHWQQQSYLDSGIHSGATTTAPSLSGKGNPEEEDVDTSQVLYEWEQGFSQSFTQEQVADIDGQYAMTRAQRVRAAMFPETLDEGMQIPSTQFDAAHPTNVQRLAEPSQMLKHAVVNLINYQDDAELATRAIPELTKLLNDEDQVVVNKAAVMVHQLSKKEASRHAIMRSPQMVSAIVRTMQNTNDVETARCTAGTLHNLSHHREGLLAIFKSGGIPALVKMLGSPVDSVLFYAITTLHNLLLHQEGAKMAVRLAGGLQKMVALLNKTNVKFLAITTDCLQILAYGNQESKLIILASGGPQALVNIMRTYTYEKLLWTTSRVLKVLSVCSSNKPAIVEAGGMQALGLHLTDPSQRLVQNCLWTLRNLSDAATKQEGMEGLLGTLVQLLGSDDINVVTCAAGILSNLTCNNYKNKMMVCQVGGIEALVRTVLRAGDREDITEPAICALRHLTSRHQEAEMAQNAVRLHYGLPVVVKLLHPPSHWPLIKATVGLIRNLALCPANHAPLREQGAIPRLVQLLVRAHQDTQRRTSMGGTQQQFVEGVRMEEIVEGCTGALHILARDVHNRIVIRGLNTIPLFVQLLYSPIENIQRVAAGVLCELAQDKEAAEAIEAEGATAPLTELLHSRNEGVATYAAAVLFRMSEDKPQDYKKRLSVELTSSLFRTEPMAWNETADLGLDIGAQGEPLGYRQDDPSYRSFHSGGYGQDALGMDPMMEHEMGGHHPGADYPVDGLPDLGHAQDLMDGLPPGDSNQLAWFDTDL

[3] = target: full-length beta-Catenin (Uniprot ID P35222) (Homo sapiens (Human)) (UniProt P35222); experiment: fluorescence polarization competition; displacement of 5FAM-TCF4(10-53) from full-length beta-catenin
Target sequence in this assay (P35222 whole entry): as the sequence (P35222 whole entry) above

Substance | IC50 [1] [nM] | IC50 [2] [nM] | other results
Ac-PL3-Asp-Npg-B5-Asp-Asp-Ala-Ala-Phe-Leu-PyrS2-4CNF-BztA-Gln-NH2 (peptide) | 987 |  | 
Ac-PL3-Asp-Npg-B5-Asp-[CH2CCpCO2H]TriAzDap-Ala-Ala-Phe-Leu-PyrS2-3Thi-BztA-Gln-NH2 (peptide) |  | 5 | 
I-1519: Ac-PL3-Asp-Cha-B5-Asp-Asp-Ala-Ala-Phe-Leu-PyrS2-3Thi-BztA-Gln-NH2 (peptide) |  |  | IC50 [3]: 10 nM
Ac-PL3-Asp-Npg-B5-Asp-Asp-Ala-Ala-Phe-Leu-PyrS2-2CNF-BztA-Gln-NH2 (peptide) | 16 |  | 
Ac-PL3-Asp-Npg-B5-Asp-3COOHF-Ala-Ala-Phe-Leu-PyrS2-2F3MeF-SbMe2NapA-Gln-NH2 (peptide) |  | 79 | 
Ac-PL3-Asp-Npg-B5-Asp-[CH2CChCO2H]TriAzDap-Ala-Ala-Phe-Leu-PyrS2-3Thi-BztA-Gln-NH2 (peptide) |  | 5 | 

More lines, main results first:

IC50 [1] [nM] | IC50 [2] [nM] | Substance | other results
7 |  | MeSO2-PL3-Asp-Npg-B5-Asp-TfeGA-Ala-Ala-Phe-Asn-PyrS2-3Thi-BztA-Gln-NH2 (peptide) | 
 | 6290 | Ac-PL3-Asp-Npg-B5-Asp-3COOHF-Ala-Ala-Phe-Leu-PyrS2-2F3MeF-2F3MeW-Gln-NH2 (peptide) | 
81 |  | Ac-PL3-Asp-Npg-B5-Asp-Asp-Ala-Ala-Phe-Leu-PyrS2-3CNF-BztA-Gln-NH2 (peptide) | 
10 |  | MeSO2-PL3-Asp-Npg-B5-Asp-Asp-Ala-Ala-Phe-Asn-PyrS2-3Thi-BztA-Gln-NH2 (peptide) | 
